# Assay results taken from the Immune Epitope Database (IEDB).
# Legend:
# [1] = target: HLA-A*02:01; assay: IEDB peptide-MHC binding, purified MHC/direct/fluorescence; filed as Kd, often an IC50 or EC50 that approximates it; ≥ and ≤ were set here for values at or beyond the usual limits of such assays; details: source organism: Haemophilus influenzae
# [2] = target: HLA-A*02:02; assay: IEDB peptide-MHC binding, purified MHC/competitive/radioactivity; filed as Kd, often an IC50 or EC50 that approximates it; ≥ and ≤ were set here for values at or beyond the usual limits of such assays
# [3] = target: HLA-A*02:03; assay: as above
# [4] = target: HLA-A*02:06; assay: as above
# [5] = target: HLA-A*03:01; assay: IEDB peptide-MHC binding, purified MHC/direct/fluorescence; filed as Kd, often an IC50 or EC50 that approximates it; ≥ and ≤ were set here for values at or beyond the usual limits of such assays
# [6] = target: HLA-A*03:01; assay: IEDB peptide-MHC binding, purified MHC/competitive/radioactivity; filed as Kd, often an IC50 or EC50 that approximates it; ≥ and ≤ were set here for values at or beyond the usual limits of such assays; details: source organism: Vaccinia virus WR
# [7] = target: HLA-A*33:01; assay: as above; details: source organism: Vaccinia virus WR
# [8] = target: HLA-A*11:01; assay: as above; details: source organism: Vaccinia virus WR
# [9] = target: HLA-A*31:01; assay: as above; details: source organism: Vaccinia virus WR
# [10] = target: HLA-A*68:01; assay: as above; details: source organism: Vaccinia virus WR
# [11] = source organism: SARS coronavirus Tor2
# [12] = source organism: Dengue virus 4 Philippines/H241/1956
# [13] = source organism: Vaccinia virus WR
# [14] = source organism: Lassa virus Josiah
# [15] = source organism: Dengue virus 3 Martinique/1243/1999
# [16] = source organism: Mammarenavirus tacaribeense
# [17] = source organism: Human immunodeficiency virus type 1 (CLONE 12)
Sequence,"Kd [2, 13]","Kd [3, 13]","Kd [4, 13]",also measured
ALLGERPII,,,,Kd [1]: 7.76 µM
ALSGVFCGV,,,,"Kd [2, 11]: 1.16 nM; Kd [3, 11]: 11.6 nM; Kd [4, 11]: 49.8 nM"
AQPGLLSYV,,,,Kd ([3]; source organism: Mammarenavirus guanaritoense): 5.53 nM
AVFKMSPGYV,,,,"Kd [3, 12]: 7.15 nM"
CAVIPFDDIV,2920 nM,7420 nM,184 nM,
CLTVPNITI,95.9 nM,75.2 nM,1660 nM,
CNYSKYWYL,,,,"Kd [2, 14]: 3660 nM; Kd [3, 14]: 7130 nM; Kd [4, 14]: 2700 nM"
DIYDAVRAFL,1460 nM,6950 nM,12100 nM,
DLKHATDYIA,8760 nM,2960 nM,1050 nM,
DLTAALRDV,,,,Kd ([4]; source organism: Homo sapiens): ≥ 28100 nM
DTIAHINTLI,1160 nM,114 nM,≥ 62200 nM,
DTSNNIAEYI,3330 nM,9220 nM,≥ 45700 nM,
EILRNYLRL,14000 nM,2090 nM,13000 nM,
FTNSQIFNII,143 nM,457 nM,1200 nM,
GIITLYLGAV,,,,"Kd [3, 15]: 4.98 nM; Kd [4, 15]: 5.01 nM"
GLCNYGGILI,152 nM,3210 nM,5030 nM,
HLYYFITYY,,,,Kd ([5]; source organism: Giardia lamblia ATCC 50803): 150 nM
IAGIILLIL,4190 nM,≥ 52900 nM,≥ 77100 nM,
IALALEQYGI,980 nM,4920 nM,1130 nM,
IIRVTTELNI,9960 nM,8760 nM,13700 nM,
ILIRTGLLV,,,,Kd ([3]; source organism: Dengue virus 2 Jamaica/1409/1983): 16.3 nM
IMKDGRVLV,,,,Kd ([3]; source organism: Dengue virus 2 16681-PDK53): 19 nM
IMRVMANNV,396 nM,1260 nM,2500 nM,
INISGYNLSL,,,,"Kd [2, 16]: 179 nM; Kd [3, 16]: 1360 nM; Kd [4, 16]: 11400 nM"
ITTLLNETA,414 nM,936 nM,596 nM,
IVCSKTVKNV,10800 nM,503 nM,2760 nM,
KLSMGLIAIA,,,,"Kd [3, 12]: 22.9 nM"

Sequence,"Kd [2, 13]","Kd [3, 13]","Kd [4, 13]",also measured
KQNHMQILK,,,,Kd ([5]; source organism: Francisella tularensis subsp. holarctica LVS): 156 nM
KSFFWFNEV,,,,"Kd [2, 16]: 61.9 nM; Kd [3, 16]: 264 nM; Kd [4, 16]: 3.18 nM"
KTDGAVTSPL,61.9 nM,400 nM,347 nM,
KTKISVEKI,7600 nM,112 nM,10700 nM,
LIISTDQDT,≥ 77800 nM,≥ 78100 nM,≥ 77100 nM,
LIYDDNIDSI,121 nM,26.1 nM,212 nM,
LLFNKVTLA,,,,"Kd [2, 11]: 0.953 nM; Kd [3, 11]: 1.06 nM; Kd [4, 11]: 9.01 nM"
LMIFISSFL,0.651 nM,0.13 nM,17.8 nM,
LTNKKYRCMA,≥ 34800 nM,5400 nM,≥ 69800 nM,
LTTVFIKYV,3650 nM,676 nM,130 nM,
LVDKEDTDIV,3700 nM,1680 nM,≥ 27100 nM,
NIISYIILFI,123 nM,133 nM,72 nM,
NIKPVIVPDI,10300 nM,745 nM,945 nM,
NITTLLNET,1300 nM,2900 nM,2310 nM,
NLTQLFKYV,320 nM,238 nM,657 nM,
PANINDKQIM,≥ 49500 nM,≥ 43100 nM,10900 nM,
PLTLLIKTL,5270 nM,6140 nM,8100 nM,
QTVDFTDCRT,≥ 30500 nM,≥ 54300 nM,3640 nM,
RILQQLLFI,,,,"Kd [3, 17]: 543 nM; Kd [4, 17]: 21.6 nM"
RLYNSLKRFT,1060 nM,444 nM,7290 nM,
RVKQWVMDTL,3480 nM,689 nM,≥ 27800 nM,
RVLIFILLTA,,,,Kd ([4]; source organism: Dengue virus 2 Peru/IQT2913/1996): 397 nM
SAFNDDGIYI,35.2 nM,67.7 nM,40.9 nM,
SINNQLMYDI,492 nM,482 nM,4830 nM,
SLCSCICTV,,,,"Kd [2, 11]: 3.96 nM; Kd [3, 11]: 4.19 nM; Kd [4, 11]: 5.83 nM"
SLYGRYNCK,,,,"Kd [5, 16]: 89 nM"
SSAVVDNKLK,,,,Kd [6]: 289 nM; Kd [7]: 17.5 µM; Kd [8]: 37.2 nM; Kd [9]: 1520 nM; Kd [10]: 1.19 nM
